Results published in article doi:10.1101/773283 (bioRxiv, 2020).
Values joined by “and” are separate entries in the source; they are usually repeats but may differ in a detail not shown here. Identical values can stand only once.

B1: human vinculin HV 1-834 containing the D1-D4 domains (domain or fragment, UniProt P18206-2 1-834, looked up)
chain: MPVFHTRTIESILEPVAQQISHLVIMHEEGEVDGKAIPDLTAPVAAVQAAVSNLVRVGKETVQTTEDQILKRDMPPAFIKVENACTKLVQAAQMLQSDPYSVPARDYLIDGSRGILSGTSDLLLTFDEAEVRKIIRVCKGILEYLTVAEVVETMEDLVTYTKNLGPGMTKMAKMIDERQQELTHQEHRVMLVNSMNTVKELLPVLISAMKIFVTTKNSKNQGIEEALKNRNFTVEKMSAEINEIIRVLQLTSWDEDAWASKDTEAMKRALASIDSKLNQAKGWLRDPSASPGDAGEQAIRQILDEAGKVGELCAGKERREILGTCKMLGQMTDQVADLRARGQGSSPVAMQKAQQVSQGLDVLTAKVENAARKLEAMTNSKQSIAKKIDAAQNWLADPNGGPEGEEQIRGALAEARKIAELCDDPKERDDILRSLGEISALTSKLADLRRQGKGDSPEARALAKQVATALQNLQTKTNRAVANSRPAKAAVHLEGKIEQAQRWIDNPTVDDRGVGQAAIRGLVAEGHRLANVMMGPYRQDLLAKCDRVDQLTAQLADLAARGEGESPQARALASQLQDSLKDLKARMQEAMTQEVSDVFSDTTTPIKLLAVAATAPPDAPNREEVFDERAANFENHSGKLGATAEKAAAVGTANKSTVEGIQASVKTARELTPQVVSAARILLRNPGNQAAYEHFETMKNQWIDNVEKMTGLVDEAIDTKSLLDASEEAIKKDLDKCKVAMANIQPQMLVAGATSIARRANRILLVAKREVENSEDPKFREAVKAASDELSKTISPMVMDAKAVAGNISDPGLQKSFLDSGYRILGAVAKVREA

Legend:
[1] = molecular target: human vinculin D1 and D2 domains (D1D2) (human) (UniProt P18206); assay: SEC-MALS
[2] = molecular target: cysteine-clamped vinculin D1D2 Q68C A396C (human) (UniProt P18206); assay: native gel or EMSA
[3] = molecular target: human vinculin D1 and D2 domains (D1D2) (human) (UniProt P18206); assay: native gel or EMSA
[4] = molecular target: human vinculin D1 subdomain (HV 1-258) (human) (UniProt P18206); assay: native gel or EMSA
[5] = molecular target: full-length human vinculin (HV) (human) (UniProt P18206); assay: ELISA
[6] = molecular target: human vinculin D1 subdomain (HV 1-258) (human) (UniProt P18206); assay: SEC-MALS
[7] = molecular target: human vinculin HV 1-834 containing the D1-D4 domains (human) (UniProt P18206); assay: SEC-MALS
SEC-MALS = molecular target: the molecule itself; assay: SEC-MALS

Molecule	stoichiometry N [2]	stoichiometry N [3]	stoichiometry N [4]	EC50 [5] [nM]	other results
human vinculin D1 and D2 domains (D1D2) (from UniProt P18206-2 1-492) (domain or fragment)					stoichiometry N [1]: 3
IpaA derivative containing VBS1-3 (A483) (from UniProt P18010 483-633) (domain or fragment)	1	1	1	6.1	stoichiometry N (A483 per D1D2) [3]: 1 and 2; stoichiometry N (D1D2 per A483) [1]: 2; stoichiometry N [6]: 3 D1 per A483; stoichiometry N (D1D4 per A483) [7]: 1 and 2
IpaA derivative containing VBS1-2 (A524) (from UniProt P18010 524-633) (domain or fragment)	1	1	1	3.7	stoichiometry N (D1D2 per A524) [1]: 1 and 2
B1					stoichiometry N (SEC-MALS): 3
